Laboratory results as given in the supplement of paper PMC11246515.
± gives the standard deviation of the averaged measurements.

Test: total protein half-life in vivo (active degradation + dilution); higher = more stable protein
[1] = wild type E. coli NCM3722, growth: C-lim chemostat, doubling time 3 h
[2] = E. coli NCM3722 delta-hslV, growth: N-lim chemostat, doubling time 6 h
[3] = E. coli NCM3722 delta-lon, growth: N-lim chemostat, doubling time 6 h
[4] = E. coli NCM3722 delta-smpB, growth: N-lim chemostat, doubling time 6 h
[5] = wild type E. coli NCM3722, growth: C-lim chemostat, doubling time 6 h
[6] = wild type E. coli NCM3722, growth: C-lim chemostat, doubling time 12 h
[7] = wild type E. coli NCM3722, growth: N-lim chemostat, doubling time 6 h
[8] = wild type E. coli NCM3722, growth: N-lim chemostat, doubling time 12 h
[9] = wild type E. coli NCM3722, growth: P-lim chemostat, doubling time 6 h
[10] = wild type E. coli NCM3722, growth: P-lim chemostat, doubling time 12 h
[11] = E. coli NCM3722 delta-clpP delta-lon delta-hslV, growth: N-lim chemostat, doubling time 6 h
[12] = E. coli NCM3722 delta-clpP, growth: N-lim chemostat, doubling time 6 h

Row | Sequence | total protein half-life in vivo [1] [h] | total protein half-life in vivo [2] [h] | total protein half-life in vivo [3] [h] | total protein half-life in vivo [4] [h] | total protein half-life in vivo [5] [h] | total protein half-life in vivo [6] [h] | total protein half-life in vivo [7] [h] | total protein half-life in vivo [8] [h] | total protein half-life in vivo [9] [h] | total protein half-life in vivo [10] [h] | total protein half-life in vivo [11] [h] | total protein half-life in vivo [12] [h]
1 | MSDYQMFEVQVSQVEPLTEQVKRFTLVATDGKPLPAFTGGSHVIVQMSDGDNQYSNAYSLLSSPHDTSCYQIAVRLEENSRGGSRFLHQQVKVGDRLTISTPNNLFALIPSARKHLFIAGGIGITPFLSHMAELQHSDVDWQLHYCSRNPESCAFRDELVQHPQAEKVHLHHSSTGTRLELARLLADIEPGTHVYTCGPEALIEAVRSEAARLDIAADTLHFEQFAIEDKTGDAFTLVLARSGKEFVVPEEMTILQVIENNKAAKVECLCREGVCGTCETAILEGEADHRDQYFSDEERASQQSMLICCSRAKGKRLVLDL | 3.41 |  |  |  |  |  |  |  |  |  |  | 
2 | MSEALKILNNIRTLRAQARECTLETLEEMLEKLEVVVNERREEESAAAAEVEERTRKLQQYREMLIADGIDPNELLNSLAAVKSGTKAKRAQRPAKYSYVDENGETKTWTGQGRTPAVIKKAMDEQGKSLDDFLIKQ [P0ACF8] | 2.9 ± 0.29 | 6.19 ± 0.062 | 7.64 ± 0.48 | 5.87 ± 1.2 | 6.22 ± 0.29 | 9.37 ± 0.21 | 5.27 ± 0.45 | 11.6 ± 2.7 | 5.16 ± 0.77 | 11.7 ± 0.41 |  | 
3 | MSEDIFDAIIVGAGLAGSVAALVLAREGAQVLVIERGNSAGAKNVTGGRLYAHSLEHIIPGFADSAPVERLITHEKLAFMTEKSAMTMDYCNGDETSPSQRSYSVLRSKFDAWLMEQAEEAGAQLITGIRVDNLVQRDGKVVGVEADGDVIEAKTVILADGVNSILAEKLGMAKRVKPTDVAVGVKELIELPKSVIEDRFQLQGNQGAACLFAGSPTDGLMGGGFLYTNENTLSLGLVCGLHHLHDAKKSVPQMLEDFKQHPAVAPLIAGGKLVEYSAHVVPEAGINMLPELVGDGVLIAGDAAGMCMNLGFTIRGMDLAIAAGEAAAKTVLSAMKSDDFSKQKLAEYRQHLESGPLRDMRMYQKLPAFLDNPRMFSGYPELAVGVARDLFTIDGSAPELMRKKILRHGKKVGFINLIKDGMKGVTVL |  |  |  |  |  | 9.28 |  |  |  |  |  | 
4 | MSEISRQEFQRRRQALVEQMQPGSAALIFAAPEVTRSADSEYPYRQNSDFWYFTGFNEPEAVLVLIKSDDTHNHSVLFNRVRDLTAEIWFGRRLGQDAAPEKLGVDRALAFSEINQQLYQLLNGLDVVYHAQGEYAYADVIVNSALEKLRKGSRQNLTAPATMIDWRPVVHEMRLFKSPEEIAVLRRAGEITAMAHTRAMEKCRPGMFEYHLEGEIHHEFNRHGARYPSYNTIVGSGENGCILHYTENECEMRDGDLVLIDAGCEYKGYAGDITRTFPVNGKFTQAQREIYDIVLESLETSLRLYRPGTSILEVTGEVVRIMVSGLVKLGILKGDVDELIAQNAHRPFFMHGLSHWLGLDVHDVGVYGQDRSRILEPGMVLTVEPGLYIAPDAEVPEQYRGIGIRIEDDIVITETGNENLTASVVKKPEEIEALMVAARKQ | 3.12 ± 0.1 | 5.23 ± 0.15 | 6 ± 0.092 | 5.36 ± 0.3 | 6 ± 0.22 | 12.4 ± 1.5 | 5.53 ± 0.15 | 10.3 ± 0.72 | 5.95 ± 0.51 | 12.8 ± 0.42 | 5.813 ± 0.036 | 6.45 ± 0.88
5 | MSEIVVSKFGGTSVADFDAMNRSADIVLSDANVRLVVLSASAGITNLLVALAEGLEPGERFEKLDAIRNIQFAILERLRYPNVIREEIERLLENITVLAEAAALATSPALTDELVSHGELMSTLLFVEILRERDVQAQWFDVRKVMRTNDRFGRAEPDIAALAELAALQLLPRLNEGLVITQGFIGSENKGRTTTLGRGGSDYTAALLAEALHASRVDIWTDVPGIYTTDPRVVSAAKRIDEIAFAEAAEMATFGAKVLHPATLLPAVRSDIPVFVGSSKDPRAGGTLVCNKTENPPLFRALALRRNQTLLTLHSLNMLHSRGFLAEVFGILARHNISVDLITTSEVSVALTLDTTGSTSTGDTLLTQSLLMELSALCRVEVEEGLALVALIGNDLSKACGVGKEVFGVLEPFNIRMICYGASSHNLCFLVPGEDAEQVVQKLHSNLFE | 3.142 ± 0.0098 | 2.67 ± 0.073 | 3.15 ± 0.3 | 2.54 ± 0.31 | 4.67 ± 0.34 | 8.44 ± 2.4 | 2.9 ± 0.23 | 4.25 ± 0.55 | 5.46 ± 0.4 | 10.1 ± 1.1 | 4.06 ± 0.69 | 2.98 ± 0.29
6 | MSEKHPGPLVVEGKLTDAERMKHESNYLRGTIAEDLNDGLTGGFKGDNFLLIRFHGMYQQDDRDIRAERAEQKLEPRHAMLLRCRLPGGVITTKQWQAIDKFAGENTIYGSIRLTNRQTFQFHGILKKNVKPVHQMLHSVGLDALATANDMNRNVLCTSNPYESQLHAEAYEWAKKISEHLLPRTRAYAEIWLDQEKVATTDEEPILGQTYLPRKFKTTVVIPPQNDIDLHANDMNFVAIAENGKLVGFNLLVGGGLSIEHGNKKTYARTASEFGYLPLEHTLAVAEAVVTTQRDWGNRTDRKNAKTKYTLERVGVETFKAEVERRAGIKFEPIRPYEFTGRGDRIGWVKGIDDNWHLTLFIENGRILDYPARPLKTGLLEIAKIHKGDFRITANQNLIIAGVPESEKAKIEKIAKESGLMNAVTPQRENSMACVSFPTCPLAMAEAERFLPSFIDNIDNLMAKHGVSDEHIVMRVTGCPNGCGRAMLAEVGLVGKAPGRYNLHLGGNRIGTRIPRMYKENITEPEILASLDELIGRWAKEREAGEGFGDFTVRAGIIRPVLDPARDLWD | 2.55 ± 0.13 | 2.52 ± 0.056 | 3.07 ± 0.14 | 2.55 ± 0.1 | 4.1634 ± 0.0008 | 5.98 ± 0.51 | 2.82 ± 0.28 | 3.73 ± 0.062 | 3.91 ± 0.24 | 6.82 ± 0.1 | 4.99 ± 0.69 | 3.79 ± 0.29
7 | MSEKLQVVTLLGSLRKGSFNGMVARTLPKIAPASMEVNALPSIADIPLYDADVQQEEGFPATVEALAEQIRQADGVVIVTPEYNYSVPGGLKNAIDWLSRLPDQPLAGKPVLIQTSSMGVIGGARCQYHLRQILVFLDAMVMNKPEFMGGVIQNKVDPQTGEVIDQGTLDHLTGQLTAFGEFIQRVKI [P0AGE6] | 3.116 ± 0.014 | 5.61 ± 0.31 | 5.83 ± 0.28 | 5.24 ± 0.12 | 5.74 ± 0.21 | 11.1 ± 0.21 | 5.27 ± 0.43 | 9.39 ± 0.36 | 5.31 ± 0.077 | 12.1 ± 0.48 | 6.73 ± 1.1 | 5.46 ± 0.56
